Test results taken from patent publication US7192728B2, “Screening assays for agents that alter inhibitor of apoptosis (IAP) protein regulation of caspase activity” (The Burnham Institute, priority 1997, dated 2007).
“Also recorded” adds a separate entry of the source. Each block holds one molecule with its values, some of them ahead of it. Where a SMILES comes first, the peptide text is derived from it. The star is where a group is joined. Cbz = O=C(OCc1ccccc1)*; CH2F = FC*

Columns and labels:
293T cells = experiment: Bax-induced apoptosis and caspase activation in transfected 293T cells; assay type: cell-based, human; conditions: 24 hr; Bax alone about 25%; zVAD-fmk 50 μM
Protocol: N-benzyloxycarbonyl-Val-Ala-Asp fluoromethylketone (zVAD-fmk; 50 μM) (Bachem Calif.; Torrance, Calif.) was added immediately after transfection of the Bax plasmid. Transfection efficiency was uniformly 80–90%, as determined by X-Gal staining following cotransfection with pCMV-βGal.
Cells were maintained in culture for 24 hr, then floating and attached cells were harvested and an aliquot was removed and the percent of dead cells was determined by either trypan blue or propidium iodide (PI) dye exclusion assay. A second aliquot was used to assess the percentage of apoptotic cells with subdiploid DNA content by FACS analysis of PI stained, ethanol fixed cells. The remaining cell pellets were lysed in 10 mM HEPES (pH 7.5), 142 mM KCl, 1 mM EGTA, 1 mM DTT, 0.2% NP-40, 0.1 mM PMSF and used for immunoblot analysis or for protease assays.

[1] = test system: HeLa cell nuclei in cytosolic extract; experiment: Apoptosis of isolated nuclei in cell-free system (cytochrome c/dATP); conditions: 0.4 μM protein with 10 μM cytochrome c and 1 mM dATP; 37° C., 60 min; baseline about 15%, cytochrome c/dATP alone >95%
Protocol: (§1) Cells were washed with ice cold buffer A (20 mM Hepes (pH 7.5), 10 mM KCl, 1.5 mM MgCl2, 1 mM EDTA, 1 mM DTT and 0.1 mM PMSF) and suspended in 1 vol buffer A, then incubated on ice for 20 min. 293 cells were disrupted by passage 15× through a 26 gauge needle and Jurkat T cells were disrupted by dounce homogenization in 2 ml using 15 strokes with a pestle B. Cell extracts (10–15 mg total protein/ml) were clarified by centrifugation at 16,000×g for 30 min, then the NaCl concentration was increased by 50 mM. Cytosolic fractions were used immediately or stored frozen at −80° C.
Isolated nuclei were prepared from HeLa cells (Martin et al., supra, 1995). Approximately 5×10^4 to 1×10^5 nuclei were added to 20 μl cytosolic extract and apoptosis was initiated by adding 10 μM horse heart cytochrome c (Sigma, Inc.; St. Louis Mo.) and 1 mM dATP, alone (positive control) or with cytochrome c, dATP and either 0.4 μM GST-XIAP or 0.4 μM GST-Bcl-2. Following incubation at 37° C. for 60 min., nuclei were stained with 1 μg/ml of acridine orange and ethidium bromide and the percentage nuclei with apoptotic features, including extremely condensed chromatin and the genesis of fragmentation of nuclei, was determined.

[2] = test system: DEVD-pNA hydrolysis activity in 293 cell cytosolic extracts; experiment: Cytochrome c/dATP-induced caspase activation (DEVD hydrolysis) in 293 cell cytosolic extracts; assay type: biochemical, human; conditions: 293 extracts + cytochrome c/dATP; GST-XIAP 0.2 μM, GST controls 2 μM, His6-S5a 5 μM; untreated ≈0.01
Protocol: as §1
(§2) Caspase activity was assayed by release of either 7-amino-4-trifluoromethyl-coumarin (AFC) or p-nitroanilide (pNA) from benzylyoxycarbonyl-DEVD (SEQ ID NO: 2) or benzylyoxycarbonyl-YVAD (SEQ ID NO: 3) synthetic peptides using a Molecular Devices Spectromax 340 for AFC labeled peptides or Perkin/Elmer LS50B for pNA labeled peptides (see Example II; see, also, Zhou et al., supra, 1997). Cytosolic extracts from 293 cells or Jurkat T cells were used directly (negative control) or were treated with 1 μM cytochrome c and 1 mM dATP or with cytochrome c, dATP and 0.2 μM GST-XIAP. Additional control reactions were performed by substituting 2 μM GST-Bcl-2, GST-Bax, GST-NM23 or GST-CD40 cytosolic domain, or 5 μM His6-S5a protein for GST-XIAP. DEVD-pNA hydrolysis was measured at various times and multiple experiments were performed using several different GST-XIAP preparations.

[3] = test system: DEVD-pNA hydrolysis activity in Jurkat T cell cytosolic extracts; experiment: Cytochrome c/dATP-induced caspase activation (DEVD-pNA hydrolysis) in Jurkat T cell cytosolic extracts; assay type: biochemical; conditions: for DEVD-pNA hydrolysis, ΔA405 after 15 min: untreated ≈0.02; for DEVD-pNA hydrolysis, ΔA405 after 20 min: untreated ≈0.025
Protocol: as §1, §2

caspase-3 [4] = biological target: T1, caspase-3 (Homo sapiens, UniProt P42574); experiment: Inhibition of purified recombinant caspase-3, DEVD substrate hydrolysis and progress curves; assay type: biochemical; conditions: DEVD-pNA hydrolysis
T1 construct: to produce the 17–20 kDa mature, fully processed large subunit of the active caspase-3 enzyme; a smaller, fully processed, subunit of about 11 kDa; His6; made in house; host or cells: E. coli BL21(DE3)pLysS
T1 sequence (P42574 29-175 limits assumed): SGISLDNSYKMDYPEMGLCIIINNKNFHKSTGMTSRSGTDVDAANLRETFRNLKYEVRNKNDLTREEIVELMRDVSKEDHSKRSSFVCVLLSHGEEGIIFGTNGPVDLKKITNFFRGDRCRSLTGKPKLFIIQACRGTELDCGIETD
T1 sequence (P42574 176-277 limits assumed): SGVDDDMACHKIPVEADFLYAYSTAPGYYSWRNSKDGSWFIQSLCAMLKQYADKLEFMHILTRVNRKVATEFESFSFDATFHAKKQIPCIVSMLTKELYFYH
Protocol: Purified recombinant caspase-1, caspase-3, caspase-6, caspase-7 or caspase-8 were incubated with DEVD-pNA, either alone or with a 10-fold to 50-fold molar excess of GST-XIAP ([…]) and substrate hydrolysis was measured. Purified active caspase concentrations ranged from 0.1 nM to 10 nM. XIAP concentration ranged from 0.1 nM to 500 nM. Assays were performed in caspase buffer (50 mM Tris, pH 7.4, 100 mM NaCl, 10% sucrose, 5–10 mM DTT, 1 mM EDTA and 0.1% CHAPS).
Equilibria were determined from progress curves when substrate hydrolysis reached a steady-state; slopes were calculated by curve fit analysis using the cricket graph program. Experiments were performed using purified recombinant caspase-3, caspase-6, or caspase-7. DEVD-AFC hydrolysis was measured using 0.1 nM caspase and a range of concentrations (0.2 to 12 μM) of recombinant XIAP (rXIAP). […] Average ratio velocities (vi/vo, where “vi” indicates presence of GST-XIAP and “vo” indicates absence of GST-XIAP) were determined.
Caspase activity was determined essentially as described in Example II, using the benzylyoxycarbonyl-DEVD-AFC (SEQ ID NO: 2) substrate and was assayed at 37° C. using the Perkin-Elmer LS50B fluorometric plate reader in the kinetic mode with excitation and emission wavelengths of 400 nm and 505 nm, respectively. […] Reactions were performed in caspase buffer (50 mM Hepes, 100 mM NaCl, 1 mM EDTA, 0.1% CHAPS, 10% sucrose, 5 mM DTT). The inhibition constant, Ki, was calculated as described (Zhou et al., supra, 1997). Immunoblot analysis was performed as described in Example I.B.3.

caspase-7 [5] = biological target: T2, caspase-7 (Homo sapiens, UniProt P55210); experiment: Inhibition of purified recombinant caspase-7, DEVD substrate hydrolysis and progress curves; assay type: biochemical; conditions: DEVD-pNA hydrolysis
T2 construct: Purified active caspase concentrations ranged from 0.1 nM to 10 nM; His6; made in house; host or cells: E. coli BL21(DE3)pLysS
T2 sequence (P55210 24-198 limits assumed): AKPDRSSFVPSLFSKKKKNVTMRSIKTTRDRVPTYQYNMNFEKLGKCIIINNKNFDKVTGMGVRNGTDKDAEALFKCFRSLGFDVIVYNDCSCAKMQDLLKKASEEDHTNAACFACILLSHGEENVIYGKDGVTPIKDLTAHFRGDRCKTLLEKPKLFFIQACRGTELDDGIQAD
T2 sequence (P55210 207-303 limits assumed): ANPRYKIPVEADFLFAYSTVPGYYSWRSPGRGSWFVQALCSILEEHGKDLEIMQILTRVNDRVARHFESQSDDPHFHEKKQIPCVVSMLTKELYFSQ

caspase-3 [6] = biological target: T1, caspase-3; experiment: GST pull-down binding to caspase-3; conditions: glutathione-Sepharose beads, immunoblot
Protocol: (§3) Following incubation at 4° C. for 60 min, the beads were removed by centrifugation and washed twice with 100 vol 50 mM Tris (pH 7.5), 150 mM KCl, 2 mM DTT and 0.025% Triton-X100, then subjected to SDS-PAGE and immunoblot assay (see Example I.B.3).

caspase-7 [7] = biological target: T2, caspase-7; experiment: GST pull-down binding to caspase-7; conditions: glutathione-Sepharose beads, immunoblot
Protocol: as §3

caspase-6 = biological target: T3, caspase-6 (Homo sapiens, UniProt P55212); experiment: GST pull-down binding to caspase-6; conditions: glutathione-Sepharose beads, immunoblot
T3 construct: Purified active caspase concentrations ranged from 0.1 nM to 10 nM; His6; made in house; host or cells: E. coli BL21(DE3)pLysS
T3 sequence (P55212 24-179 limits assumed): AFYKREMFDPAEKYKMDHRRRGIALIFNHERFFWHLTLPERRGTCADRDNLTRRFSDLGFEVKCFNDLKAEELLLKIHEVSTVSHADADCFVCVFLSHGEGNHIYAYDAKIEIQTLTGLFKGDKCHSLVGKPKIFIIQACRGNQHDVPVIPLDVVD
T3 sequence (P55212 194-293 limits assumed): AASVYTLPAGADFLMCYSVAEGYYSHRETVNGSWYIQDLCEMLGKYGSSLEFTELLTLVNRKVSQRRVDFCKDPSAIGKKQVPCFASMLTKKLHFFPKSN

Molecule: CC(C)[C@H](NC(=O)OCc1ccccc1)C(=O)N[C@@H](C)C(=O)N[C@@H](CC(=O)O)C(=O)CF [zVAD-fmk, N-benzyloxycarbonyl-Val-Ala-Asp fluoromethylketone, reference compound] (Cbz-Val-Ala-Asp-CH2F)
- apoptotic cells (PI staining) in Bax expressing cells (293T cells): about 5%

Molecule: GST-Bcl-2: recombinant control protein, GST fusion of Bcl-2 [reference compound]
- apoptotic nuclei [1]: greater than 95%
- DEVD-pNA hydrolysis, ΔA405 after 15 min [2]: ≈ 0.1
- DEVD-pNA hydrolysis, ΔA405 after 15 min [3]: ≈ 0.09
- DEVD-pNA hydrolysis, ΔA405 after 20 min [3]: ≈ 0.1

- inhibition of caspase-3 in vitro (in words) (caspase-3 [4]): had no effect
- inhibition of caspase-7 in vitro (in words) (caspase-7 [5]): had no effect
- binding of caspase-6 (in words) (caspase-6): No caspase binding was observed
B1: GST-CD40 cytosolic domain: recombinant control protein, GST fusion of CD40 cytosolic domain (protein)
chain: KKVAKKPTNKAPHPKQEPQEINFPDDLPGSNTAAPVQETLHGCQPVTQEDGKESRISVQERQ
modifications: not fully specified; also: GST fusion partner not in chain
- DEVD-pNA hydrolysis, ΔA405 after 15 min [2]: ≈ 0.1
- DEVD-pNA hydrolysis, ΔA405 after 15 min [3]: ≈ 0.09
- DEVD-pNA hydrolysis, ΔA405 after 20 min [3]: ≈ 0.1
- binding of caspase-3 (in words) (caspase-3 [6]): No caspase binding was observed; also recorded: did not bind
- binding of caspase-7 (in words) (caspase-7 [7]): No caspase binding was observed; also recorded: did not bind
